Results from patent publication US20090181057A1 (BOARD OF TRUSTEES OF THE UNIVERSITY OF ILLINOIS, published 2009).
Substitutions are numbered along the chain they refer to. Names and notes keep the numbering of the source.

Experiments:
[1] = target: T1, von Willebrand factor (vWF), purified human (human, UniProt P04275 764-2813); assay: flow cytometry of CHO cells with purified VWF and ristocetin, anti-VWF monoclonal antibody
T1 construct: Purified vWF in the flow cytometry and capillary adhesion assays; the vWF of the donor's plasma in the assays with platelet-rich plasma; also called purified vWF
Procedure: Flow Cytometric Analysis of VWF Binding to GPIb-IX-expressing Cells—CHO cells expressing wild type (1b9) and mutant GPIb-IX were grown to confluence to synchronize cell growth. The cells were detached using 0.5 mM EDTA in PBS, pH 7.4. Seventy-five percent of the original volume was then replated in Dulbecco's modified Eagle's medium (DMEM) growth media and cultured for 18 h. For VWF binding assays, cells were detached using 0.5 mM EDTA-PBS, pH 7.4, resuspended to a concentration of 2.25×10⁶ cells/ml and incubated in modified Tyrode's buffer (2.5 mM Hepes, 12.1 mM NaHCO₃, 2.36 mM KCl, 0.136 M NaCl, 1 mM CaCl₂, 1 mM MgCl₂, 0.1% D-glucose, 1% BSA, pH 7.4) for 30 min at 4° C. […] After washing once with Tyrode's buffer, cells were further incubated with 10 μg/ml FITC-labeled SZ-29 (a monoclonal antibody against vWF) in the dark at 22° C. for 30 min and then analyzed by flow cytometry. […]
The cells were then analyzed by flow cytometry without washing. […]
To determine the roles of the above described two phosphoserine residues in regulating ligand binding function of GPIb-IX, CHO cell lines bearing wild type and the mutants of GPIb-IX were incubated with purified VWF in the presence of ristocetin (a VWF modulator that induces VWF binding to GPIb-IX). Binding of VWF was determined by flow cytometry using an anti-VWF monoclonal antibody. […]

[2] = target: maltose-binding protein (MBP), conjugated to control beads (UniProt P0AEX9 27-392 = MBP); assay: bead pull-down from platelet lysate, anti-GPIbα immunoblot
Procedure: 14-3-3 binding to GPIb-IX. Binding of GPIb-IX to 14-3-3-conjugated beads were performed as previously described (Du et al., J. Biol. Chem., 271:7362-7367 (1996)). Briefly, 14-3-3-conjugated Sepharose 4B beads and maltose-binding protein (MBP)-conjugated control beads were preincubated with various concentrations of synthetic peptides at 4° C. for 1 h, and then with platelet lysates for an additional 1 h. The beads were washed three times. Bound GPIb-IX was detected by Western blot with a monoclonal antibody against GPIbα, WM23.
To examine if the above peptides interfere with 14-3-3 interaction with GPIb-IX, platelet lysates were incubated with beads conjugated with recombinant 14-3-3-maltose-binding protein (MBP) fusion protein in the absence or presence of MPαC or control peptides. GPIb-IX from platelet lysates specifically bound to 14-3-3 beads but not the control MBP-conjugated beads (FIG. 1B).

B1: recombinant wild type GPIb-IX expressed in CHO cells (1b9) (receptor)
chain 1: HPICEVSKVASHLEVNCDKRNLTALPPDLPKDTTILHLSENLLYTFSLATLMPYTRLTQLNLDRCELTKLQVDGTLPVLGTLDLSHNQLQSLPLLGQTLPALTVLDVSFNRLTSLPLGALRGLGELQELYLKGNELKTLPPGLLTPTPKLEKLSLANNNLTELPAGLLNGLENLDTLLLQENSLYTIPKGFFGSHLLPFAFLHGNPWLCNCEILYFRRWLQDNAENVYVWKQGVDVKAMTSNVASVQCDNSDKFPVYKYPGKGCPTLGDEGDTDLYDYYPEEDTEGDKVRATRTVVKFPTKAHTTPWGLFYSWSTASLDSQMPSSLHPTQESTKEQTTFPPRWTPNFTLHMESITFSKTPKSTTEPTPSPTTSEPVPEPAPNMTTLEPTPSPTTPEPTSEPAPSPTTPEPTPIPTIATSPTILVSATSLITPKSTFLTTTKPVSLLESTKKTIPELDQPPKLRGVLQGHLESSRNDPFLHPDFCCLLPLGFYVLGLFWLLFASVVLILLLSWVGHVKPQALDSGQGAALTTATQTTHLELQRGRQVTVPRAWLLFLRGSLPTFRSSLFLWVRPNGRVGPLVAGRRPSALSQGRGQDLLSTVSIRYSGHSL
chain 2: CPAPCSCAGTLVDCGRRGLTWASLPTAFPVDTTELVLTGNNLTALPPGLLDALPALRTAHLGANPWRCDCRLVPLRAWLAGRPERAPYRDLRCVAPPALRGRLLPYLAEDELRAACAPGPLCWGALAAQLALLGLGLLHALLLVLLLCRLRRLRARARARAAARLSLTDPLVAERAGTDES
chain 3: TKDCPSPCTCRALETMGLWVDCRGHGLTALPALPARTRHLLLANNSLQSVPPGAFDHLPQLQTLDVTQNPWHCDCSLTYLRLWLEDRTPEALLQVRCASPSLAAHGPLGRLTGYQLGSCGWQLQASWVRPGVLWDVALVAVAALGLALLAGLLCATTEALD
modifications: Ser166 phosphorylated in CHO cells, as the filing says; phosphoserine 609, as the filing calls it
notes: whole, on cells; On intact CHO cells in flow cytometry and adhesion; in Triton X-100 lysate in the co-immunoprecipitation; No GPV
binding result [1]: binds

B2: GPIb-IX with wild type GPIbβ and GPIX and GPIbα S609A, expressed in CHO cells (S609A) (receptor)
chain 1: B1 chain 1 with S609A
chain 2: B1 chain 2
chain 3: B1 chain 3
notes: whole, on cells; also called S609A mutant
binding result [1]: binds

B3: glycoprotein (GP) Ib-IX-V complex (GPIb-IX) of human platelets (receptor)
chain 1: B1 chain 1
chain 2: B1 chain 2
chain 3: B1 chain 3
chain 4: QPFPCPPACKCVFRDAAQCSGGDVARISALGLPTNLTHILLFGMGRGVLQSQSFSGMTVLQRLMISDSHISAVAPGTFSDLIKLKTLRLSRNKITHLPGALLDKMVLLEQLFLDHNALRGIDQNMFQKLVNLQELALNQNQLDFLPASLFTNLENLKLLDLSGNNLTHLPKGLLGAQAKLERLLLHSNRLVSLDSGLLNSLGALTELQFHRNHIRSIAPGAFDRLPNLSSLTLSRNHLAFLPSALFLHSHNLTLLTLFENPLAELPGVLFGEMGGLQELWLNRTQLRTLPAAAFRNLSRLRYLGVTLSPRLSALPQGAFQGLGELQVLALHSNGLTALPDGLLRGLGKLRQVSLRRNRLRALPRALFRNLSSLESVQLDHNQLETLPGDVFGALPRLTEVLLGHNSWRCDCGLGPFLGWLRQHLGLVGGEEPPRCAGPGAHAGLPLWALPGGDAECPGPRGPPPRPAADSSSEAPVHPALAPNSSEPWVWAQPVTTGKGQDHSPFWGFYFLLLAVQAMITVIIVFAMIKIGQLFRKLIRERALG
modifications: phosphoserine at Ser609 (the filing says Ser609 is constitutively phosphorylated in resting platelets)
notes: whole, on cells; Native complex of platelets from healthy donors; solubilised in platelet lysate in the 14-3-3 bead pull-down; also called glycoprotein Ib-IX; platelet VWF receptor
binding result [2]: no binding
